The text below walks through data of paper PMC8135044, “Lytic transglycosylase MltG cleaves in nascent peptidoglycan and produces short glycan strands” (The Cell Surface, 2021).

This assay deals with T1, BsPBP2B (Bacillus subtilis, UniProt Q07868 1-713).
T1 construct: Not pulled down by Ni-NTA beads alone; also called class B PBP2B; source: E. coli BL21 (DE3), purified from membranes (Ni-NTA, thrombin, HiTrap SP ion exchange)
T1 sequence (looked up): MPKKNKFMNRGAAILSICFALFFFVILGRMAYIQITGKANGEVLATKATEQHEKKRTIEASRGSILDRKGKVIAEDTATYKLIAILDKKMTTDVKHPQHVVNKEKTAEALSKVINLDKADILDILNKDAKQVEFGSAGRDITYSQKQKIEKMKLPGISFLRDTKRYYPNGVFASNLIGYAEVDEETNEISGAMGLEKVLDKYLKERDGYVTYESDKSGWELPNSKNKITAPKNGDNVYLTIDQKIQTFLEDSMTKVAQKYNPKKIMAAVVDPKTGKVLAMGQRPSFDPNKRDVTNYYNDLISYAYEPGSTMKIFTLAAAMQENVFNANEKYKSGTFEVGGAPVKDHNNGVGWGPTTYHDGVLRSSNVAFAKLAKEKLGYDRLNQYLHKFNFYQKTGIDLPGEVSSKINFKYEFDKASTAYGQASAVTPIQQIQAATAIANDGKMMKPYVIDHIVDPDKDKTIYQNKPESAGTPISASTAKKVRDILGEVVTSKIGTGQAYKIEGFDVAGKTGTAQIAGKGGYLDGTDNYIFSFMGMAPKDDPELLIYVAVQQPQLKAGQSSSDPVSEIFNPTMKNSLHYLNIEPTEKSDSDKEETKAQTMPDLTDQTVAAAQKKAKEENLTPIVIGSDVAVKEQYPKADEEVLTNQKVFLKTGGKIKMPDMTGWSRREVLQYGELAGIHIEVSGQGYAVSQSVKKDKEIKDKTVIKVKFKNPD
The experiment in a line: SPR; PBP2B covalently bound to ampicillin immobilised on the chip; BsMltG injected as analyte, 0 to 500 nM; 25 C; 10 mM Tris/Maleate, 150 mM NaCl, 0.05% Triton X-100, pH 7.5; response at equilibrium fitted to one site saturation; three independent experiments. To be noted: both partners purified.

B1: BsMltG (enzyme, Bacillus subtilis, UniProt O34758 1-360, looked up)
chain: MYINQQKKSFFNKKRIILSSIVVLFLIIGGAFLYGKSLLEPVEKDSKTTVNINIPSGSSVSAIASILKKNDVIKSEKAFQYYVKYKGASGFQAGFYHLNKGMDLDAIIQKLTSGATGYAFQITVTEGAQLTQIAAAIADETKYSKKQVIAKLDDETFINQLKKEFPDTVTNDVFNKNIKHPLEGYLFPATYPFNDPDTSLEDIIKAMIKQTNSYVETYKSEMKKNKVSVHKLLTMASLIEEEATEKADRHKIASVFYNRLKKKMPLQTDPTVLYAAGKHKDRVLYKDLEIDSPYNTYKNTGLTPGPIANAGMSSWEAALHPDKTDYLYFLAKSNGEVVFTKTLKEHNKAKEKYISSKNEK
notes: Named without 'His-' in the SPR and activity assays; also called YrrL; MltG from Bacillus subtilis; source: E. coli BL21 (DE3), purified from membranes (Ni-NTA, thrombin, HiTrap SP ion exchange)
Consider B1, for which the Kd amounted to 128 ± 28 nM.
